Experimental data reported in patent publication US20220243288, “BIOSENSORS FOR POLYKETIDE EXTENDER UNITS AND USES THEREOF” (NORTH CAROLINA STATE UNIVERSITY, published 2022).

Target: T1, FapR (Bacillus subtilis, UniProt O34835 SEQ:1-188)
T1 sequence: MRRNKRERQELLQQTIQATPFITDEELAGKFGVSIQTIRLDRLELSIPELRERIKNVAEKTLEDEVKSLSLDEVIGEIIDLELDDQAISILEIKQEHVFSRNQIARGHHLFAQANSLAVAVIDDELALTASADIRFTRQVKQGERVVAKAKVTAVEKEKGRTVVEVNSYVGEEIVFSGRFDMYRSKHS
Experiment: EMSA; near-complete shift; 2 pmol fapO, 6 pmol FapR (text also says two-fold excess); 10 mM Tris pH 7.5, 100 mM KCl, 30 C; released by 200 uM malonyl-CoA or methylmalonyl-CoA
Conditions: tags: C-terminal His6 (pET28a); chain copies: 2
From the text: The saturated alkyl derivatives emCoA and bmCoA were the poorest effectors, based on the fluorescence data. This robust activity of pgmCoA is due in part to the increased rigidity of the alkyne side-chain or additional interactions of the alkynyl […] with the FapR ligand-binding site, with the […] side-chain of the nearby Phe99 (FIG. 5A). Gratifyingly, de-repression was not observed in the presence of propionyl-CoA and was indistinguishable from the (−) thioester control. To provide further evidence that FapR is de-repressed by derivatives of mCoA, FapR was tested in vitro for DNA-binding and release by electrophoretic mobility shift assay (EMSA) in the presence of mCoA or mmCoA. Using purified wild-type FapR protein, EMSA was run with a 40 bp DNA fragment containing the fapO binding site (FIG. 7). […] Incubation with the FapR-fapO complex with mmCoA achieved a similar level of de-repression as that observed with mCoA (FIG. 7).
Electrophoretic mobility shift assay. The fapO oligonucleotides 5′-[…]-3′ (SEQ ID NO:30) and 5′-[…]-3′ (SEQ ID NO:31) were annealed per standard procedure. […] Reactions were then analyzed by electrophoresis on a 6% PAGE gel at 220 V. The gel was stained with SYBR Green I and imaged on a Typhoon FLA 7000.

B1: 40 bp fapO fragment (dsDNA)
DNA 1: CCTAGGACTATTAGTACCTAGTCTTAATTGTCCGGCATCC
DNA 2: GGATGCCGGACAATTAAGACTAGGTACTAATAGTCCTAGG
**Q.** Does B1 bind?
**A.** binds
